Reference: article PMC2739586 (Journal of molecular biology, 2009)

Target: the molecule itself
Experiment: crystal structure

B1: Miner1 (C92S), soluble region of human Miner1 (amino acids 57-135) (domain or fragment)
chain: GSHMRPFLPKKKQQKDSLINLKIQKENPKVVNEINIEDLSLTKAAYCRCWRSKTFPACDGSHNKHNELTGDNVGPLILKKKEV
Question: With B1 as the protein, how does the “stoichiometry N” value read?
Answer: Its value is 2.
